Source: patent publication US5801039
Residue numbers refer to the chain shown, from its start. Names and notes keep the numbering of the source.

T1: succinyl-L-alanyl-L-alanyl-L-prolyl-L-phenylalanyl-p-nitroanilide
T1 sequence (peptide, N-terminal succinyl; C-terminal p-nitroanilide): AAPF

B1: Bacillus lentus DSM 5483 alkaline protease (BLAP), wild type enzyme (enzyme)
chain: AQSVPWGISRVQAPAAHNRGLTGSGVKVAVLDTGISTHPDLNIRGGASFVPGEPSTQDGNGHGTHVAGTIAALNNSIGVLGVAPSAELYAVKVLGADGRGAISSIAQGLEWAGNNGMHVANLSLGSPSPSATLEQAVNSATSRGVLVVAASGNSGASSISYPARYANAMAVGATDQNNNRASFSQYGAGLDIVAPGVNVQSTYPGSTYASLNGTSMATPHVAGAAALVKQKNPSWSNVQIRNHLKNTATSLGSTNLYGSGLVNAEAATR
B2: BLAP variant M131 (S3T + V4I + A188P + V193M + V199I) (enzyme)
chain: B1 chain with S3T, V4I, A188P, V193M, V199I
B3: BLAP mutant F54 (S3T + V4I + R99G + A188P + V193M + V199I + L211D) (enzyme)
chain: B1 chain with S3T, V4I, R99G, A188P, V193M, V199I, L211D
B4: BLAP mutant F55 (S3T + V4I + S154E + A188P + V193M + V199I + L211D) (enzyme)
chain: B1 chain with S3T, V4I, S154E, A188P, V193M, V199I, L211D
B5: BLAP mutant F49 (S3T + V4I + A188P + V193M + V199I + L211D) (enzyme)
chain: B1 chain with S3T, V4I, A188P, V193M, V199I, L211D
B6: BLAP mutant F44 (S3T + V4I + R99A + A188P + V193M + V199I) (enzyme)
chain: B1 chain with S3T, V4I, R99A, A188P, V193M, V199I
B7: BLAP mutant F43 (S3T + V4I + R99G + A188P + V193M + V199I) (enzyme)
chain: B1 chain with S3T, V4I, R99G, A188P, V193M, V199I
B8: BLAP mutant F45 (S3T + V4I + R99S + A188P + V193M + V199I) (enzyme)
chain: B1 chain with S3T, V4I, R99S, A188P, V193M, V199I
B9: BLAP mutant F11 (S3T + R99S + A188P + V193M + V199I) (enzyme)
chain: B1 chain with S3T, R99S, A188P, V193M, V199I
B10: BLAP mutant F46 (S3T + V4I + S154E + A188P + V193M + V199I) (enzyme)
chain: B1 chain with S3T, V4I, S154E, A188P, V193M, V199I
B11: BLAP mutant F47 (S3T + V4I + S154D + A188P + V193M + V199I) (enzyme)
chain: B1 chain with S3T, V4I, S154D, A188P, V193M, V199I

The binders below were run against T1, succinyl-L-alanyl-L-alanyl-L-prolyl-L-phenylalanyl-p-nitroanilide.
With B1 the kcat · Km^-1 was 297000 M⁻¹ s⁻¹.
B2 showed a kcat · Km^-1 of 156000 M⁻¹ s⁻¹.
Binder B3 has a kcat · Km^-1 of 1300 M⁻¹ s⁻¹.
B4 gave a kcat · Km^-1 of 2600 M⁻¹ s⁻¹.
In the case of B5, the kcat · Km^-1 is reported as 11000 M⁻¹ s⁻¹.
B6 was tested, and the kcat · Km^-1 was 103000 M⁻¹ s⁻¹.
With B7 the kcat · Km^-1 was 99000 M⁻¹ s⁻¹.
In the case of B8, the kcat · Km^-1 is reported as 68000 M⁻¹ s⁻¹.
For B9, the kcat · Km^-1 was 92000 M⁻¹ s⁻¹.
Binder B10 has a kcat · Km^-1 of 179000 M⁻¹ s⁻¹.
For B11, the kcat · Km^-1 was 124000 M⁻¹ s⁻¹.

What follows are binders tested against casein (prepared according to Hammarsten; Merck, Darmstadt, #2242).
With B1 the Specific Activity (HPE · mg^-1) was 4000 HPE · mg^-1.
Work on B2 yielded a Specific Activity (HPE · mg^-1) of 3670 HPE · mg^-1.
For B3, the Specific Activity (HPE · mg^-1) was 2510 HPE · mg^-1.
With B4 the Specific Activity (HPE · mg^-1) was 3200 HPE · mg^-1.
B5 was tested, and the Specific Activity (HPE · mg^-1) was 4610 HPE · mg^-1.
B6 was tested, and the Specific Activity (HPE · mg^-1) was 3750 HPE · mg^-1.
B7 showed a Specific Activity (HPE · mg^-1) of 3780 HPE · mg^-1.
Work on B8 yielded a Specific Activity (HPE · mg^-1) of 3710 HPE · mg^-1.
For B9, the Specific Activity (HPE · mg^-1) was 3760 HPE · mg^-1.
Work on B10 yielded a Specific Activity (HPE · mg^-1) of 3180 HPE · mg^-1.
B11 was tested, and the Specific Activity (HPE · mg^-1) was 3610 HPE · mg^-1.
